Laboratory results published in publication PMC10272136, “Molecular mechanisms of Holliday junction branch migration catalyzed by an asymmetric RuvB hexamer” (Nature Communications, 2022).
Values joined by “and” are separate entries in the source; they are usually repeats but may differ in a detail not shown here. Equal entries are not always repeated.

Legend:
RuvA = target: T1, RuvA (Thermus thermophilus, UniProt Q9F1Q3 1-191); experiment: cryo-EM structure; from RuvA-RuvB-HJ sample; RuvA tetramer binds HJ core; 20 mM Tris-HCl pH 7.5, 10 mM MgCl2, 1 mM DTT, 2 mM ATPgS, 30 min at 37 C; gel filtration in 20 mM Tris-HCl, 150 mM NaCl; settings: protein: recombinant; tags: N-terminal His tag (pET-28a, NdeI/XhoI); chain copies: 4; four-way junction of 4 strands, 1 copy each
T1 sequence: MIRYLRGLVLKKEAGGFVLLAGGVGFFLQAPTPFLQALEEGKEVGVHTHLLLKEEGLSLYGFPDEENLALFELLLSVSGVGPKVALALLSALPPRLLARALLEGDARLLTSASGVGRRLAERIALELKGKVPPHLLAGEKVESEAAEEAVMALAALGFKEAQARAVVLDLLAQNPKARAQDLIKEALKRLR

RuvB = target: T2, RuvB (Thermus thermophilus, UniProt Q5SL87 1-324); experiment: gel filtration; 2 mM ATPgS, 10 mM MgCl2; DNA:RuvB monomer 1:6; 20 mM Tris-HCl pH 7.5, 10 mM MgCl2, 1 mM DTT, 2 mM ATPgS, 30 min at 37 C; gel filtration in 20 mM Tris-HCl, 150 mM NaCl; settings: protein: recombinant; tags: N-terminal His tag (pET-28a, NdeI/SalI); chain copies: 6; four-way junction of 4 strands, 1 copy each
T2 sequence: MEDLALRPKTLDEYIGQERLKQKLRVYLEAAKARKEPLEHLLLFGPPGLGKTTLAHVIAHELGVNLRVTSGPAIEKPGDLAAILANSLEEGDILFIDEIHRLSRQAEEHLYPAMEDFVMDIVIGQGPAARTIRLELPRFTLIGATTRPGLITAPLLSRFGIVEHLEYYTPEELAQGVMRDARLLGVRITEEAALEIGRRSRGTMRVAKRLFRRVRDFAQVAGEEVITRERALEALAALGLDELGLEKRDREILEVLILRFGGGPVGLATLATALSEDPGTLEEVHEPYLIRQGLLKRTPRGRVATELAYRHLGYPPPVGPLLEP

[1] = target: the molecule itself; experiment: cryo-EM structure; sample of RuvA, RuvB and HJ DNA (6:4:1 RuvB:RuvA:HJ DNA); only a RuvA-HJ DNA structure was obtained; C4 symmetry, 4.3 Å
[2] = target: the molecule itself; experiment: cryo-EM structure; RuvB mixed with annealed HJ DNA at 1:6 (DNA/RuvB monomer) in 20 mM Tris-HCl pH 7.5, 10 mM MgCl2, 1 mM DTT, 2 mM ATP-γ-S, 30 min at 37 °C; complex purified by gel filtration; two maps (hexamer 2.97 Å, C1; dodecamer 3.2 Å, C2)

B1: HJ DNA (HJ1-HJ4) (structured_DNA)
DNA 1: AGAATCTGCCGAGAGACCGAGCAGAATTCTATGTGTTTACCAAGCGCTG
DNA 2: CAGCGCTTGGTAAACACATAGAATTCTGCTCGGTCTGAGCCGTCTAAGA
DNA 3: TCTTAGACGGCTCACTGGCTGTGGGATCCGAGCTGTCTAGAGACATCGA
DNA 4: TCGATGTCTCTAGACAGCTCGGATCCCACAGCCAGTCTCGGCAGATTCT
Question: Which results are given for B1?
Answer: binding result (RuvA): binds; binding result (RuvB): binds

B2: Thermus thermophilus RuvA (natural protein, UniProt Q9F1Q3 1-191, looked up)
chain: T1 sequence
notes: source: E. coli BL21(DE3) RipL, purified (heat step at 55 °C, Ni-NTA, gel filtration)
Question: For B2, which “stoichiometry N” value [1] is on record?
Answer: 4

B3: Thermus thermophilus RuvB (enzyme, UniProt Q5SL87 1-324, looked up)
chain: T2 sequence
notes: RuvB, Holliday junction branch migration ATPase (AAA+), Thermus thermophilus; printed MW 35,973; Purified RuvB carried endogenous ADP (native mass spectrometry); It forms the hexamer and dodecamer only in the sample with DNA and ATPγS; also called T. thermophilus RuvB; RuvB protomer; source: E. coli BL21(DE3) RipL, purified (heat step at 55 °C, Ni-NTA, Superdex 200 gel filtration)
Question: How did the “stoichiometry N” value [2] turn out when B3 was run?
Answer: 6 and 12
